Measured values published in article PMC11005723, “Development of Complementary Photo‐arginine/lysine to Promote Discovery of Arg/Lys hPTMs Interactomes” (Advanced Science, 2024).

Molecular target: His‐DPF2PHD (residues 270–391) (UniProt Q92785)
Experiment: ITC; 25 °C, MicroCal PEAQ-ITC; protein in the cell titrated with 19 injections of peptide

His‐DPF2PHD (residues 270–391), sequence (Q92785 270-391): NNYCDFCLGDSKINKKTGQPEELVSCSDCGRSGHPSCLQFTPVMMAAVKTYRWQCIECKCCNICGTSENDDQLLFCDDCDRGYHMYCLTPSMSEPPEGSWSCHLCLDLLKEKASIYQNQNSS

Kd: 3.5 µM
Substance: native H3R2 peptide (H3_(1‐15) without diazirine and biotin)
